{
  "source": "patent US20120321591A1",
  "about": "(COVX TECHNOLOGIES IRELAND, published 2012)",
  "binders": {"B1": {"name": "Compound 4061, peptide plus linker (T) (peptide)", "peptide": "QXYQPLDELDKTLYDQFMLQQG", "modifications": "not fully specified; N-terminal acyl cap; C-terminal amino cap; Nick 2; 0P linker on K11", "notes": "also called 4061 T"}, "B2": {"name": "Compound 4057, peptide plus linker (T) (peptide)", "peptide": "QNYQPLDELDKTL[Phe(4-COOH)]DQFMLQQG-NH2", "modifications": "not fully specified (residue 11, N-terminus); also: N-terminal acyl cap, acyl not given here", "notes": "also called 4057 T"}},
  "key": {"[1]": {"target": "T1, recombinant human VEGF165 (human, UniProt P15692-4 27-191)", "T1 construct": "also called rhVEGF165", "T1 sequence (P15692 other isoform, or with tags, fused parts or gaps limits assumed)": "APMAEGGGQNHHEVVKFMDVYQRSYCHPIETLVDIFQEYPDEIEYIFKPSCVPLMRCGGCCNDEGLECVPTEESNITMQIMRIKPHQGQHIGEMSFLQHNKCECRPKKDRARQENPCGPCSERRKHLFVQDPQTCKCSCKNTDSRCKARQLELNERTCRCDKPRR", "test": "competition ELISA: VEGF165 binding to coated VEGFR2/Fc; normalized value"}, "[2]": {"target": "T2, human angiopoietin-2 protein (human, UniProt O15123 19-496)", "T2 construct": "also called Ang-2; Ang2", "T2 sequence (looked up)": "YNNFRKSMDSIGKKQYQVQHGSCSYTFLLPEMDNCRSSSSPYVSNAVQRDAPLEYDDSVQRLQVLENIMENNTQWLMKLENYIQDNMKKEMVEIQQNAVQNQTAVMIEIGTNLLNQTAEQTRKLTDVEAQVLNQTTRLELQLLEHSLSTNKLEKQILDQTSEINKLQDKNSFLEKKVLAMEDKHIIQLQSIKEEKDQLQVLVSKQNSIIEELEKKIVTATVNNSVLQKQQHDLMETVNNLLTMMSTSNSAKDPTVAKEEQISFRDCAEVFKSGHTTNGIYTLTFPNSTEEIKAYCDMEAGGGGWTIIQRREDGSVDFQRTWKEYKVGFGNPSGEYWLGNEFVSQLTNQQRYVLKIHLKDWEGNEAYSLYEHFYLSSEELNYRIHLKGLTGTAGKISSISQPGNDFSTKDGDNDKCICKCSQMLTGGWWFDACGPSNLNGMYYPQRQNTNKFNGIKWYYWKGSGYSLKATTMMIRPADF", "test": "competitive ELISA: Tie-2-Fc binding to coated Ang-2; T", "description": "(§1) Plates were washed three times with washing buffer (0.1% Tween 20, PBS, pH 7.4) and blocked with Superblock (Scytek), […] at room temperature (“RT”) for 1 hour. […] Plates were washed 3 times with washing buffer. […] Following incubation, 50 ul of 1:5,000 dilution of goat anti-mouse IgG-HRP in Superblock was then added and incubated at RT for one hour. After washing 3 times, […] was added, and incubated for 3-5 minutes. Color development was monitored and stopped with 25 μl of 2 M H₂SO₄. OD450 nm with a correction wavelength of 540 nm was measured."}, "[3]": {"target": "T2, human angiopoietin-2 protein", "test": "competitive ELISA: Tie-2-Fc binding to coated Ang-2; peptide alone", "description": "as §1"}, "[4]": {"target": "T2, human angiopoietin-2 protein", "test": "reverse competition ELISA presumed: Ang-2 binding to coated Tie-2-Fc; peptide alone", "description": "Plates were washed three times with washing buffer (0.1% Tween 20, PBS, pH 7.4) and blocked with Superblock, 150 μl/well at RT for 1 hour. Plates were washed three times. […] Plates were washed 3 times, and 50 W of streptavidin HRP (1:200 dilution in Superblock) was added at RT for 20 minutes. Plates were washed 3 times, and […] (25 μl TMB+25 μl H₂O₂) substrate solution was added and incubated for 20-30 minutes. Color development was stopped with 25 μl of 2 M H₂SO₄. OD450 nm with a correction wavelength of 540 nm was measured."}, "[5]": {"target": "T1, recombinant human VEGF165", "test": "competition ELISA: VEGF165 binding to coated VEGFR2/Fc; normalized value", "remark": "listed apart in the source"}},
  "note": "Where two headings read alike, the source gives them in different places. Bridges are numbered along the chain shown (N, C = ends). Where no end group is shown, it is not given here. [ ]: non-standard residue; d: D form. Phe(4-COOH) = N[C@@H](Cc1ccc(C(=O)O)cc1)C(=O)O",
  "data": [
    {"binder": "Ac-VEPNCDIHVMWVWECFERLYGGW-NH2 (disulfide 5-15 (inferred))", "note": "[[VEGF-Peptide] SEQ ID NO:35]", "values": [
      {"measurement": "IC50", "setting": "[1]", "value": 325, "unit": "nM"}
    ]},
    {"binder": "Ac-VEPNCDIHVMWVWVCFERLFKEA-NH2 (disulfide 5-15 (inferred))", "note": "[[VEGF-Peptide] SEQ ID NO:37]", "values": [
      {"measurement": "IC50", "setting": "[1]", "value": 59, "unit": "nM"}
    ]},
    {"binder": "Ac-VEPNCDIHVMWVWVCFERLFREA-NH2 (disulfide 5-15 (inferred))", "note": "[[VEGF-Peptide] SEQ ID NO:36]", "values": [
      {"measurement": "IC50", "setting": "[1]", "value": 172, "unit": "nM"}
    ]},
    {"binder": "Ac-VEPNCDIHVMWVWECFERLYREL-NH2 (disulfide 5-15 (inferred))", "note": "[[VEGF-Peptide] SEQ ID NO:39]", "values": [
      {"measurement": "IC50", "setting": "[1]", "value": 70, "unit": "nM"}
    ]},
    {"binder": "B1", "values": [
      {"measurement": "IC50", "setting": "[2]", "value": 83.9, "unit": "nM"}
    ]},
    {"binder": "QNYQPLDELDKTLYDQFMLQQG-NH2 (also: N-terminal acyl cap)", "note": "[Compound 4023]", "values": [
      {"measurement": "IC50", "setting": "[3]", "value": 27.8, "unit": "nM"}
    ]},
    {"binder": "QKYQPLDELDKTLYDQFMLQQG-NH2 (also: N-terminal acyl cap)", "note": "[Compound 4021]", "values": [
      {"measurement": "IC50", "setting": "[4]", "value": 36.4, "unit": "nM"},
      {"measurement": "IC50", "setting": "[3]", "value": 25.8, "unit": "nM"}
    ]},
    {"binder": "QK(Ac)YQPLDEK(Ac)DKTL[Phe(4-COOH)]DQFMLQQG-NH2 (not fully specified (residue 11, N-terminus), also called 4062 T)", "note": "[Compound 4062, peptide plus linker (T)]", "values": [
      {"measurement": "IC50", "setting": "[2]", "value": 499, "unit": "nM"}
    ]},
    {"binder": "B2", "values": [
      {"measurement": "IC50", "setting": "[2]", "value": 110, "unit": "nM"}
    ]},
    {"binder": "Ac-VEPNCDIHVMWEWECFERL-NH2 (disulfide 5-15 (inferred))", "note": "[[VEGF-Peptide] SEQ ID NO:34]", "values": [
      {"measurement": "IC50", "setting": "[5]", "value": 188, "unit": "nM"},
      {"measurement": "IC50", "setting": "[1]", "value": 188, "unit": "nM"}
    ]},
    {"binder": "QXYQPLDELDKTLYDQFMLQQG (N-terminal acyl cap; C-terminal amino cap; Kac 2)", "note": "[Compound 4022]", "values": [
      {"measurement": "IC50", "setting": "[4]", "value": 14.4, "unit": "nM"},
      {"measurement": "IC50", "setting": "[3]", "value": 41.9, "unit": "nM"}
    ]}
  ]
}
